Source: publication PMC5072170

Tested on: Cc1cn([C@H]2C[C@H](O)[C@@H](COP(=O)(O)OP(=O)(O)O[C@H]3O[C@H](C)[C@@H](O)[C@H](N)[C@H]3O)O2)c(=O)[nH]c1=O
Experiment: purified protein
Details: 5 mM N10-formyl-THF, 50 mM HEPPS pH 8.0, hyperbolic

## QdtF (Providencia alcalifaciens)
  Km: 450 ± 90 µM
  kcat: 2.43 ± 0.31 s⁻¹
  kcat/Km: 5400 M⁻¹ s⁻¹
